Substitutions are numbered along the chain they refer to.
B1: AB383 (antibody, V domains shown)
VH: EIQLVQSGAEVKKPGASVKVSCKASGYTFTNYGMNWVRQAPGQGLEWMGWINTYTGEPTYADDFKGRVTFTTDTSTSTAYMELSSLRSEDTAVYYCARKFLTTVVVTDYAMDYWGQGTTVTVSS
VL: DIQMTQSPSSLSASVGDRVTITCRASQDISNYLNWYQQKPGKAPKLLIYYTSRLQSGVPSRFSGSGSGTDYTLTISSLQPEDFATYYCQQGNTLPPTFGQGTKLEIK
notes: Full-length humanized antibody made in HEK 293-6E; also called hMAK199VH.2b/hMAK199VL.1b
B2: AB385 (antibody, V domains shown)
VH: B1 VH
VL: DIVMTQSPAFLSVTPGEKVTITCRASQDISNYLNWYQQKPDQTVKLLIYYTSRLQSGVPSRFSGSGSGTDYTFTISSLEAEDAATYFCQQGNTLPPTFGQGTKLEIK
notes: Full-length humanized antibody made in HEK 293-6E; also called hMAK199VH.2b/hMAK199VL.2a
B3: AB386 (antibody, V domains shown)
VH: B1 VH
VL: B2 VL with T43A, V44P, F87Y
notes: Full-length humanized antibody made in HEK 293-6E; also called hMAK199VH.2b/hMAK199VL.2b

Molecular target: T1, Recombinant Human TNF-α/TNFSF1A (human, UniProt P01375 77-233)
T1 sequence (P01375 77-233 limits assumed): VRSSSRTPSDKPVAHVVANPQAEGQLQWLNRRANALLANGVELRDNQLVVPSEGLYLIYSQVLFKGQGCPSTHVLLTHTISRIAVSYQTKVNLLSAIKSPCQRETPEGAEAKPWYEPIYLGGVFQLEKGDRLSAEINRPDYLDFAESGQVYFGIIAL
Experiment: cell-based or functional assay

Binder	TNFα Neutralization Assay IC50 nM (L929 cells)
B1	> 20 nM
B2	9.76 nM
B3	> 20 nM

Molecular target: T1, Recombinant Human TNF-α/TNFSF1A
Experiment: SPR (BIACORE), antibody captured, TNFα in solution
Protocol: The BIACORE assay (Biacore, Inc, Piscataway, N.J.) determines the affinity of antibodies with kinetic measurements of on-rate and off-rate constants. Binding of antibodies to a target antigen (for example, a purified recombinant target antigen) is determined by surface plasmon resonance-based measurements with a Biacore® 1000 or 3000 instrument (Biacore® AB, Uppsala, Sweden) using running HBS-EP (10 mM HEPES [pH 7.4], 150 mM NaCl, 3 mM EDTA, and 0.005% surfactant P20) at 25° C. All chemicals are obtained from Biacore® AB (Uppsala, Sweden) or otherwise from a different source as described. For example, approximately 5000 RU of goat anti-mouse IgG, (Fcγ), fragment specific polyclonal antibody (Pierce Biotechnology Inc, Rockford, Ill.) diluted in 10 mM sodium acetate (pH 4.5) is directly immobilized across a CM5 research grade biosensor chip using a standard amine coupling kit according to manufacturer's instructions and procedures at 25 μg/ml. Unreacted moieties on the biosensor surface are blocked with ethanolamine. Modified carboxymethyl dextran surface in flowcell 2 and 4 is used as a reaction surface. Unmodified carboxymethyl dextran without goat anti-mouse IgG in flow cell 1 and 3 is used as the reference surface. For kinetic analysis, rate equations derived from the 1:1 Langmuir binding model are fitted simultaneously to association and dissociation phases of all eight injections (using global fit analysis) with the use of Biaevaluation 4.0.1 software. Purified antibodies are diluted in HEPES-buffered saline for capture across goat anti-mouse IgG specific reaction surfaces. Antibodies to be captured as a ligand (25 μg/ml) are injected over reaction matrices at a flow rate of 5 μl/minute. The association and dissociation rate constants, kₒₙ (M⁻¹ s⁻¹) and koff (s⁻¹), are determined under a continuous flow rate of 25 μl/minute. Rate constants are derived by making kinetic binding measurements at different antigen concentrations ranging from 10-200 nM. The equilibrium dissociation constant (M) of the reaction between antibodies and the target antigen is then calculated from the kinetic rate constants by the following formula: KD=koff/kₒₙ. Binding is recorded as a function of time and kinetic rate constants are calculated. In this assay, on-rates as fast as 10⁶ M⁻¹ s⁻¹ and off-rates as slow as 10⁻⁶ s⁻¹ can be measured.

Binder	Kd	koff	kon
B1	2.1 nM	0.0018 s⁻¹	830000 M⁻¹ s⁻¹
B2	2.2 nM	0.0019 s⁻¹	880000 M⁻¹ s⁻¹
B3	2.3 nM	0.0015 s⁻¹	660000 M⁻¹ s⁻¹
